The chains are these.
B1: mAb47 (antibody, V domains shown)
VH: QIQLVQSGPELKKPGETVKISCKASGYTFTTYGMSWVKQAPGKGLKWMGWINTYSGVPTYADDFKGRFAFSLETSASTAYLQINNLKNEDTATYFCARRGNYGRWDFDVWGTGTTVTVSS
VL: EIVLTQSPALMAASPGEKVTITCSVSSTISSSNLHWYQQKSETSPKPWIYGTSNLASGVPVRFSGSGSGTSYSLTISSMEAEDAATYYCQQWSIYPLTFGAGTKLELK
notes: murine hybridoma antibody
B2: mAb63 (antibody, V domains shown)
VH: EVQLQQSGPELVKPGASVKMSCKASGYTFTDFYMNWVRQSHGKSLEWIGDIFPKNGNTDYNRKFKDKATLTVDKSSNTVYMEFRSLTLEDSAIYFCARSGYGNYVFDYWGQGTIFTVSS
VL: DVQMTQTPSALSASLGDRVTISCRTSQDINIYLNWYQQKPDGTVKLLIYYRSGLLSGVPSRFSGSGSGTDYSLTISNLEPEDIATYFCQQGNTLPPTFGGGTKLEIK
notes: murine hybridoma antibody
B3: mAb103 (antibody, V domains shown)
VH: QIQLVQSGPELKKPGETVKISCKASGYTFTTYGVIWVKQAPGKGLKWMGWINTYSGVPTYADDFKGRFAFSLETSASTAFLQINNLKNEDTATYFCARKKTLTTVTPWFAYWGQGTLVTVSA
VL: DLVVTQSSSASFSLGASAKLTCTLSSQHSTYTIEWYQQQPLKPPKYVMELKKDGSHSTGDGIPDRFSGSSSGADRYLTISNIQPEDEAIYICGVGNTIKEQFVYVFGGGTKVTVL
notes: murine hybridoma antibody

The values below come from US20230013784A1 (JIANGSU HENGRUI MEDICINE, published 2023).

This test concerns the target T1, human CEA protein on the cell surface of MKN45 human gastric cancer cells (human, UniProt P06731 35-685).
T1 construct: whole, on cells; GPI-anchored glycoprotein; also called CEACAM-5; CD66e
T1 sequence (looked up): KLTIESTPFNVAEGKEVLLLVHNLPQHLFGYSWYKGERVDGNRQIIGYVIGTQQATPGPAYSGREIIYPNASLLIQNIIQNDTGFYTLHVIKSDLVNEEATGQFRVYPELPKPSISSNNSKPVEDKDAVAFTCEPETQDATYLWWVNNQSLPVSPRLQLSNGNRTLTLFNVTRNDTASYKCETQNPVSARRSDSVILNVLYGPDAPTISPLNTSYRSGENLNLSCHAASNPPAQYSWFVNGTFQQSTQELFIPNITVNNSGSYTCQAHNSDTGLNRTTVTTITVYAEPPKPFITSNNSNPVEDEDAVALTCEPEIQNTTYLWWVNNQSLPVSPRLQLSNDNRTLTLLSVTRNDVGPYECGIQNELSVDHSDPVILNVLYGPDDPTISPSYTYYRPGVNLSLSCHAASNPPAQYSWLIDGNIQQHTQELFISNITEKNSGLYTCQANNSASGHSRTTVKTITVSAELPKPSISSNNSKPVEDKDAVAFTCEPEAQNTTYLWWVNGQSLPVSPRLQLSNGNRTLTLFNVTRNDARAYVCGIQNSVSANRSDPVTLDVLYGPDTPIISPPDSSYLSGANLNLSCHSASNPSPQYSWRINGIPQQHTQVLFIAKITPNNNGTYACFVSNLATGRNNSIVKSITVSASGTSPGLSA
Kind of test: FACS on MKN45; with/without 5 ug/ml sCEA as competitor. As to the method: In order to detect whether the antibody preferentially binds to CEA present on the surface of cell membrane in the presence of sCEA (as shown in SEQ ID NO:1), the inventors pre-incubated a gradient of diluted antibodies with a certain concentration of sCEA (5 μg/ml) for 30 min, then MKN45 cells were collected (human gastric cancer cells, Nanjing Kebai Biotechnology Co., Ltd., Cat #CBP60488) and loaded into 96-well plate. The gradient of diluted antibodies as well as the mixture of pre-incubated antibody and sCEA were separately added to each well, incubated at 4° C. for 60 min and centrifuged to remove the supernatant. Pre-cooled PBS containing a final concentration of 10% FBS was added to wash the cells, repeated twice. 50 μl of 1:200 diluted secondary antibody Alexa Fluor@488 goat anti-human IgG (H+L) (Lifetechologies, Cat #A11013) was added, incubated at 4° C. in dark for 45 min and centrifuged to remove the supernatant. 250 μl of pre-cooled PBS containing a final concentration of 10% FBS was added to wash the cells; repeated twice. 100 μl of pre-cooled PBS was added to each well for resuspension. Flow cytometer (FACS) was used for detection to obtain the fluorescence signal value.
Consider B1, for which the “maximum fluorescence signal ratio (without sCEA v.s. with sCEA)” value turned out to be 1.08. In the case of B2, the “maximum fluorescence signal ratio (without sCEA v.s. with sCEA)” value is 1.43. The value for B3 was 1.02.
